Consider 1 molecule from patent publication US10920201B2, “Rice EPSPS mutant, encoding gene and use thereof” (GEVOTO LLC, priority 2016, dated 2021).

The test system of test [1] is EDCE (E. coli DH5a with EPSPS gene and C-P Lyase gene being knocked out). The test is described as follows: Glyphosate resistance of transformed E. coli in liquid screening culture media (growth saturation index). Also noted: key to Growth Saturation Index: saturation index=0, no growth; saturation index=1, little growth; saturation index=2, half-saturated growth; saturation index=3, flourishing growth, but still having room to grow; saturation index=4, rapid growth, the bacteria having reached a highest (saturated) concentration in the culture media or the growth having reached the limit. In kind it is cell-based. The text has this:
1.6 A double knockout E. coli was transformed (E. Coli DH5a with EPSPS gene and C-P Lyase gene being knocked out, named as EDCE, wherein for a preparation method thereof, reference can be made to a Chinese invention patent with the filing number CN2016103256926, entitled “Method for Screening Glyphosate-resistant Gene, EPSPS Mutant Gene, Defect Strain and Application Thereof”).
In the above, the screening culture media were culture media obtained by adding antibiotic, Spec (Spectinomycin), Gen (Gentamycin), Amp (Ampicillin) of certain concentrations and glyphosate of different concentrations, with M9 as a basic medium. Basic components of the M9 culture medium were as follows: Na2HPO4 13˜14 g/L, KH2PO4 5.7˜6.3 g/L, NaCl 0.9˜1.1 g/L, NH4Cl 1.8˜2.2 g/L, glucose 37˜43 g/L, MgSO4˜7H2O 48˜52 g/L, and CaCl2) 21˜23 g/L.
In the present example, EDCE transformed by the wild-type rice EPSPS gene (named as OsE gene, SEQ ID NO. 3) was taken as a control group, and the monoclonal resistant bacterium containing the OsEM gene (SEQ ID NO. 2) obtained in step 3.1 of Example 1 was taken as an experiment group, to detect the glyphosate resistance of the OsEM gene in bacteria.
The control group and the experiment group were respectively inoculated into culture media (screening culture media) containing glyphosate concentrations of 0 mM, 5 mM, 10 mM, 20 mM, 50 mM, 75 mM, and 100 mM, to observe growth states of bacterial colony in each group, denoted by growth saturation index (saturation index=0, no growth; saturation index=1, little growth; saturation index=2, half-saturated growth; saturation index=3, flourishing growth, but still having room to grow; saturation index=4, rapid growth, the bacteria having reached a highest (saturated) concentration in the culture media or the growth having reached the limit).

Test [2] relates to EPSPS and C-P Lyase deficient E. coli. The test is described as follows: Growth of transformed E. coli on solid culture media containing glyphosate (FIG. 4). In kind it is cell-based. The note with it: solid culture medium. On the procedure:
Besides, the glyphosate-resistant CP4-EPSPS gene mostly widely used currently in genetically modified crops in agriculture was further used in the present example as positive control, and E. coli respectively transformed by OsE gene (negative control group), OsEM gene (experiment group) and CP4-EPSPS gene (positive control group) were inoculated onto solid culture media respectively containing glyphosate of concentration of 0 mM, 1 mM, 50 mM, 100 mM, to observe growth states of bacterial colony in each group.

For a further test, the system named is soybean plants. The test is described as follows: Glyphosate spray test on soybean plants transformed with OsEM gene. In kind it is in vivo. The text has this:
In the present example, wild-type soybean plants were taken as controls, the positive soybean plants transformed with OsEM gene obtained in Example 4 were taken as experiment group, to verify glyphosate resistance of OsEM gene in plants. An experiment method is as follows:
1 The OsEM transformed positive soybean plants 10-20 cm tall and 3 wild-type soybean plants with a similar size were numbered and then randomly arranged in an experiment area (preventing leaves from overlapping).
2 The area with the plants was measured, and glyphosate was sprayed at a dosage of 1060 g/hectare (0.106 g/m^2).
3 Commercially available Roundup® 41% ammonium glyphosate was used. Amount was calculated according to the experiment area and dosage of 0.106 g/m^2, then diluted 20 times with water, and uniformly sprayed on the plants in the experiment area.
4 After leaf surfaces were dry, the plants in the experiment group and the control group were moved into a greenhouse.
5 Growth states of the plants were evaluated and recorded.
Afterwards, plants grew well were transplanted to larger pots to grow, and the glyphosate (having a concentration of […]) was sprayed for a second time on a 21st day. After 2 weeks, the growth states of the plants in each group were captured and recorded.

The mark [3] stands for this setting: 7th day after first glyphosate spray, 1060 g/hectare (0.106 g/m^2).

B1: OsEM: Rice EPSPS mutant gene (SEQ ID NO. 2) encoding 5-enolpyruvylshikimate-3-phosphate synthase mutant (SEQ ID NO. 1), 8 amino acid mutations (protein)
chain: MASNAAAAAAKAEEIVLQPIREISGAVQLPGSKSLSNRILLLSALSEGTTVVDNLLNSEDVHYMLEALKGLGLSVEADKVAKRAVVVGCGGKFPVEKDAKEEVQLFLGNAATAMRSLTAAVTAAGGNATYVLDGVPRMRERPIGDLVVGLKRLGADVDCFLGTECPPVRVKGIGGLPGGKVKLSGSISSQYLSALLMAAPLALGDVEIEIIDRLISIPYVEMTLRLMERFGVKAEHSDSWDRFYIKGGQQYESPGNAYVEGDASSASYFLAGAAITGGTVTVQGCGTTSLQGDVKFAEVLEMMGAKVTWTDTSVTVTGPPREPYGKKHLKAVDVNMNKMPDAAMTLAVVALFADGPTAIRDVASWRVKETERMVAIRTELTKLGASVEEGPDYCIITPPEKLNITAIDTYDDHRMAMAFSLAACADVPVTIRDPGCTRKTFPNYFDVLSTFVRN
B1: the “Growth Saturation Index” value in test [1] (0 mM glyphosate in culture medium), in test [1] (5 mM glyphosate in culture medium), in test [1] (10 mM glyphosate in culture medium), in test [1] (20 mM glyphosate in culture medium), in test [1] (50 mM glyphosate in culture medium) and in test [1] (75 mM glyphosate in culture medium) was 4 each time. For the same molecule, the “Growth Saturation Index” value in test [1] (100 mM glyphosate in culture medium) amounted to 4. In addition, the “glyphosate concentration to which resistance is endowed” value in test [1] (E. coli transformed by the gene) is on record as 100 mM; in the test on soybean plants (soybean plants transformed by the gene) it was 1.06 g/m^2. Moreover, the “growth state of bacterial colony” value in test [2] (0 mM glyphosate), in test [2] (1 mM glyphosate), in test [2] (50 mM glyphosate) and in test [2] (100 mM glyphosate) was “could grow normally” each time. Moreover, in the test with soybean plants (1.06 g/m^2 glyphosate sprayed on 21st day, recorded after 2 weeks), the “growth state of plants after second glyphosate spray (FIG. 7)” value was “could grow continuously”. Moreover, the “number of plants with Growth State + (low glyphosate resistance)” value in the test on soybean plants (setting [3]) came to 3. Further, in the test on soybean plants (setting [3]), the “number of plants with Growth State ++ (medium glyphosate resistance)” value came to 1. The “number of plants with Growth State +++ (high glyphosate resistance)” value in the test on soybean plants (setting [3]) amounted to 4. For the same molecule, the “number of plants with Growth State − (no glyphosate resistance)” value in the test with soybean plants (setting [3]) is reported as 2.
